# Assay results as given in US20100003756.
# Key:
# Assay in all cases: cell_activity
# [1] = test system: ZFN SBS 17622 (BAK) (synthetic); details: pair 17622/17623, MDCK cells, CEL-I/Surveyor
# [2] = test system: ZFN SBS 17627 (BAK) (synthetic); details: pair 17627/17626, MDCK cells, CEL-I/Surveyor
# [3] = test system: ZFN SBS 10077 (BAX) (synthetic); details: BAX ZFNs of Table 1 (pair 10077/10079 inferred), Bak-deficient CHO, 21 of 79 clones Bsl I assay
# [4] = test system: ZFN SBS 17623 (BAK) (synthetic); details: pair 17622/17623, MDCK cells, CEL-I/Surveyor
# [5] = test system: ZFN SBS 17626 (BAK) (synthetic); details: pair 17627/17626, MDCK cells, CEL-I/Surveyor
# [6] = test system: ZFN SBS 10079 (BAX) (synthetic); details: BAX ZFNs of Table 1 (pair 10077/10079 inferred), Bak-deficient CHO, 21 of 79 clones Bsl I assay
# [7] = test system: ZFN SBS 17659 (BAX) (synthetic); details: pair 17658/17659, MDCK cells, CEL-I/Surveyor
# [8] = test system: ZFN SBS 17658 (BAX) (synthetic); details: pair 17658/17659, MDCK cells, CEL-I/Surveyor
sequence,measurement,setting,value
AATGATGCAGCATGA (double strand) [BAK 17622 half-site],activity (% alleles modified),[1],3.7
AGGGGTGGCTGGGTAG (double strand) [BAK 17627 half-site],activity (% alleles modified),[2],1.1
CAGGGTGGCTGG (double strand) [BAX 10077 half-site],activity (% clones modified),[3],27
CCGGTGGATCGCGCAGAG (double strand) [BAK 17623 half-site],activity (% alleles modified),[4],3.7
GATCCACCGGGCAATGCA (double strand) [BAK 17626 half-site],activity (% alleles modified),[5],1.1
GATCCAGACAAG (double strand) [BAX 10079 half-site],activity (% clones modified),[6],27
GGTTGGGTGAGGCCTG (double strand) [BAX 17659 half-site],activity (% alleles modified),[7],8
GTCCTGGATCCAGCC (double strand) [BAX 17658 half-site],activity (% alleles modified),[8],8
